Test results reported in patent US20110110861A1 (WALTER AND ELIZA HALL INSTITUTE OF MEDICAL RESEARCH, published 2011).

T1: mouse 5B6, full length, membrane bound on cells (mouse)
T1 construct: also called m5B6; mClec9A
T1 chain: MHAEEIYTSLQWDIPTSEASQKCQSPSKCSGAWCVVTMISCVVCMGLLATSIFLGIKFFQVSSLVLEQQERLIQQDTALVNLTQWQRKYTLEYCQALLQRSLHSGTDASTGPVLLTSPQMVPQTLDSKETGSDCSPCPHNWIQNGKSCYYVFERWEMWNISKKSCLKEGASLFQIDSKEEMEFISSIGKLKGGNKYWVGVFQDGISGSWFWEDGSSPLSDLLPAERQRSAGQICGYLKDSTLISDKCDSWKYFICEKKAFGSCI


What was measured:
[1] = target: T2, human 5B6, full length, membrane bound on cells (human, UniProt Q6UXN8 1-241); experiment: flow cytometry on live 293T cells transiently transfected with full length untagged h5B6
T2 construct: also called h5B6; hCLEC9A
Description: (§1) To identify binding partners for the 5B6 molecule, the inventors generated the soluble FLAG-tagged m5B6 and h5B6, and a control soluble FLAG-tagged C-type lectin Cire. […] Thus, soluble 5B6 can interact with membrane bound 5B6 in a cross-species manner.
(§2) Binding assays were performed in binding buffer (PBS containing 0.2% BSA/and 0.02% sodium azide), on ice. Cells were washed 3 times with PBS to remove serum proteins, then resuspended in binding buffer. Cells were incubated with either (1) biotinylated soluble Clec9A and controls, and detected with SA-PE, or (2) soluble FLAG-tagged Clec9A, biotinylated anti-FLAG mAb 9H10, then detected with SA-PE. Live cells were gated on forward and side scatter, or by propidium iodide (PI) exclusion, whereas dead cells were gated on forward and side scatter, or by PI inclusion. Analysis of soluble Clec9A binding was performed by flow cytometry using a FACScan (Becton Dickinson).

[2] = target: T1, mouse 5B6, full length, membrane bound …; experiment: flow cytometry on live 293T cells transiently transfected with full length untagged m5B6
Description: as §1, §2

T2 sequence (Q6UXN8 whole entry): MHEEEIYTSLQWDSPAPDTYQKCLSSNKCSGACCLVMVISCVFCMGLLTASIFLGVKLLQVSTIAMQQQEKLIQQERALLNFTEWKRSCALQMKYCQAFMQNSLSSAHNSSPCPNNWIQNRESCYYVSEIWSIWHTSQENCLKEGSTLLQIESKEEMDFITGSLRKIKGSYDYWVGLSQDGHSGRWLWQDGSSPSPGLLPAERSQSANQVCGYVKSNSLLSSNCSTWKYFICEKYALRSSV

| binding result [1] | binding result [2] | Binder |
| --- | --- | --- |
| binds | binds | soluble FLAG-tagged mouse 5B6 (full ectodomain: stalk/hinge and CTLD) (receptor, also called soluble m5B6; soluble mouse 5B6) ASISARQNSGLHHILDAQKMVWNHRGARQDYKDDDDKTREQQERLIQQDTALVNLTQWQRKYTLEYCQALLQRSLHSGTDASTGPVLLTSPQMVPQTLDSKETGSDCSPCPHNWIQNGKSCYYVFERWEMWNISKKSCLKEGASLFQIDSKEEMEFISSIGKLKGGNKYWVGVFQDGISGSWFWEDGSSPLSDLLPAERQRSAGQICGYLKDSTLISDKCDSWKYFICEKKAFGSCI |
| binds | binds | soluble FLAG-tagged human 5B6 (full ectodomain: stalk/hinge and CTLD) (receptor, Built like m1; also called soluble h5B6; soluble human 5B6) not shown |
